Reference: patent CN112851814A (XIAN YUFAN BIOTECHNOLOGIES CO LTD, dated 2021)

Assays:
BSA蛋白 = molecular target: T1, BSA蛋白 (UniProt P02769 25-607); experiment: ELISA, BSA coated at 2 μg/mL, dilution series of B48, detected by anti-HA and HRP goat anti-mouse IgG
T1 construct: Control protein in the ELISA; also called 对照蛋白

BCMA蛋白 = molecular target: T2, BCMA蛋白 (human, UniProt Q02223 1-54); experiment: ELISA, BCMA coated at 2 μg/mL, dilution series of B48, detected by anti-HA and HRP goat anti-mouse IgG
T2 construct: extracellular domain; also called 抗原BCMA; B cell maturation antigen
T2 sequence (looked up): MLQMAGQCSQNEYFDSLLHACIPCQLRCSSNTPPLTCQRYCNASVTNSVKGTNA

T1 sequence (P02769 25-607 limits assumed): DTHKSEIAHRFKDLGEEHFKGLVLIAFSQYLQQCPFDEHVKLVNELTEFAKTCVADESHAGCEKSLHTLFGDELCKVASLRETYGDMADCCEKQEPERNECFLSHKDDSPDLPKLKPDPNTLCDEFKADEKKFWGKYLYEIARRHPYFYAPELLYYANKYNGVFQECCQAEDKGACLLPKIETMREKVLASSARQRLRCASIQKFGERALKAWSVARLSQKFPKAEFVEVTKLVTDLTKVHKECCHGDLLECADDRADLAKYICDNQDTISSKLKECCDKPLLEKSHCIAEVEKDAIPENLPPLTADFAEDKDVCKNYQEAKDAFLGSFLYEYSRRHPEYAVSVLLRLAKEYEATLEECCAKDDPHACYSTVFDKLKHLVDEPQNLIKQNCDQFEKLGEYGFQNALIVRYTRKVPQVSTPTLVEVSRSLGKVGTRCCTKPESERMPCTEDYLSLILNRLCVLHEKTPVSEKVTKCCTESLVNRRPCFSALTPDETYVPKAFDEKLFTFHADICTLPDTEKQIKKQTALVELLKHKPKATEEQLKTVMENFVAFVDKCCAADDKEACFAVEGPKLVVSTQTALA

B1: 抗BCMA单链抗体B48 (scFv)
scFv: QVQLVESGGDLVQPGGSLRLSCAASGFTFDDYAMHWVRQAPGKGLEWVSGISWNSGSIGYADSVKGRFTISRDNAKNSLYLQMNSLRAEDTALYYCAKIAGGAFDIWGQGTMVTVSSGGGGSGGGGSGGGGSDIRMTQSPSTLSASVGDRVTITCQASQNIGHFLAWYQHKPGKAPKLLIYAASTLQSGVPSRFSGSGSGTDFTLTISSLQPEDFGTYYCHHYVTVPLTFGQGTRVEIK
notes: Expressed in E. coli BL21 from pET-26b with an N-terminal pelB signal peptide (secreted to the periplasm); Purified protein carries C-terminal HA and 6xHis tags; also called B48单链抗体; not shown: C-terminal 6xHis tag from the vector pET-26b; vector residues between the insert
With B1 the binding result (BSA蛋白) was “no binding” and the EC50 (BCMA蛋白) was 0.034 µM.
